Measurements published in PMC11525548.

Target: human CEACAM5 extracellular domain (Homo sapiens) (UniProt P06731)
Assay: SPR

Kd	koff	kon	t1/2 of dissociation	Substance
8.2 nM	0.00322 s⁻¹	395000 M⁻¹ s⁻¹	–	tusa Fab+Fc heavy chain Gly26Ala variant (antibody)
306 nM	0.0199 s⁻¹	64800 M⁻¹ s⁻¹	–	tusa Fab+Fc heavy chain His99Ala variant (antibody)
8.2 nM	0.00368 s⁻¹	–	–	tusa Fab+Fc heavy chain Phe29Ala variant (antibody)
6.7 nM	0.00205 s⁻¹	307000 M⁻¹ s⁻¹	–	tusa Fab+Fc heavy chain Ser30Ala variant (antibody)
5.6 nM	–	321000 M⁻¹ s⁻¹	–	tusa Fab+Fc heavy chain Ser53Ala variant (antibody)
2010 nM	0.0531 s⁻¹	26400 M⁻¹ s⁻¹	–	tusa Fab+Fc heavy chain Tyr50Ala variant (antibody)
–	0.0637 s⁻¹	73200 M⁻¹ s⁻¹	–	tusa Fab+Fc light chain His91Ala variant (antibody)
1340 nM	0.0362 s⁻¹	–	18 s	tusa Fab+Fc light chain Phe30Ala variant (antibody)
8.2 nM	0.00238 s⁻¹	291000 M⁻¹ s⁻¹	–	tusa Fab+Fc light chain Ser31Ala variant (antibody)
1790 nM	0.0552 s⁻¹	30800 M⁻¹ s⁻¹	–	tusa Fab+Fc light chain Tyr92Ala variant (antibody)
14 nM	0.00386 s⁻¹	275000 M⁻¹ s⁻¹	–	tusamitamab antigen-binding fragment region plus the fragment crystallizable region, wild type (antibody)

Target: tusa Fab+Fc light chain Pro95Ala variant (human) (UniProt P01834)
Assay: SPR

Kd	koff	kon	Substance
13500 nM	0.0177 s⁻¹	1310 M⁻¹ s⁻¹	human CEACAM5 extracellular domain (from UniProt P06731 35-685) (domain or fragment)
